# Patent publication US20190010232A1 (Eli Lilly, published 2019)
# B1: parent PD-L1 antibody (as IgG1-EN homodimer) (antibody, V domains shown)
# VH: QVQLVQSGAEVKKPGSSVKVSCKASGGTFSSYAISWVRQAPGQGLEWMGGIIPIFGTANYAQKFQGRVTITADKSTSTAYMELSSLRSEDTAVYYCARSPDYSPYYYYGMDVWGQGTTVTVSS
# VL: QSVLTQPPSASGTPGQRVTISCSGSSSNIGSNTVNWYQQLPGTAPKLLIYGNSNRPSGVPDRFSGSKSGTSASLAISGLQSEDEADYYCQSYDSSLSGSVFGGGIKLTVL
# notes: IgG1-EN homodimer; parent of the anti-PD-L1 arm of the bispecific antibodies; also called parental PD-L1 Ab; parental anti-PD-L1 antibody
# What was measured:
# PD-L1 expressed on cells = PD-L1 expressed on cells (UniProt Q9NZQ7 19-290, limits assumed); test: cell-based or functional assay
# [1] = target: T1, human PD-L1-Fc (R&D Systems, cat#156-B7) (human, UniProt Q9NZQ7 19-239); test: ELISA, plate coated with human PD-L1-Fc, detection with anti-human IgG F(ab')2-HRP
# T1 construct: Bought reagent; both are treated here as the same molecule; also called PD-L1 ligand; not shown: Fc part of the bought fusion protein
# T1 sequence (Q9NZQ7 19-239 limits assumed): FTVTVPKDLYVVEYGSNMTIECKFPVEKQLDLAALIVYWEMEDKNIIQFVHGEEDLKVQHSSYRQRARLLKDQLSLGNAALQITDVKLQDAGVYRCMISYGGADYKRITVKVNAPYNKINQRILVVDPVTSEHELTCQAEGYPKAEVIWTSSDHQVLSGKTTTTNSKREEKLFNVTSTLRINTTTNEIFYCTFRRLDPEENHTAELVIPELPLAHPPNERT
# PD-L1 expressed on cells, sequence (Q9NZQ7 19-290 limits assumed): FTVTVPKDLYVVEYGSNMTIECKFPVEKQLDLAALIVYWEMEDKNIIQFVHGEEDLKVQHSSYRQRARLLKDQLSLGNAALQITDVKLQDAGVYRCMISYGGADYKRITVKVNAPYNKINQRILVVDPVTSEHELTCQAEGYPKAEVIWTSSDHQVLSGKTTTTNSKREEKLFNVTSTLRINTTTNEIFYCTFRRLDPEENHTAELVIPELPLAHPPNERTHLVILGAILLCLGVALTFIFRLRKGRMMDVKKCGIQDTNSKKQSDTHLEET
binder,measurement,setting,value
B1,"EC50, PD-1/NFAT Reporter Jurkat T cell assay with PD-L1 positive T cell activator CHO cells",PD-L1 expressed on cells,1.92 nM
same,EC50,[1],0.47 nM
